Reference: paper PMC7948467, “Discovery of an ultraspecific triuret hydrolase (TrtA) establishes the triuret biodegradation pathway” (The Journal of Biological Chemistry, 2020)

Experiments:
[1] = system: T1, NC(=O)NC(=O)NC(N)=O; assay: ammonia release, Berthelot assay; assay type: biochemical, Rhodococcus sp. Mel; details: phosphate buffer, pH optimum, 25 °C, saturation not achieved
T1 construct: recombinant

[2] = system: T2, NC(=O)NC(N)=O; assay: ammonia release, Berthelot assay; assay type: biochemical, Rhodococcus sp. Mel; details: phosphate buffer, pH optimum, 25 °C
T2 construct: recombinant

[3] = molecular target: Triuret hydrolase (TrtA) from Herbaspirillum sp. BH-1, wild type, His-tag cleaved (Herbaspirillum sp. BH-1); assay: SEC; HiLoad 16/600 Superdex 200 pg, 50 mM Tris, 200 mM sodium chloride, pH 8, 1 ml/min; His-tag cleaved TrtA

Chain of RhdBiuH (Rhodococcus sp. Mel) (chain, as listed by the source): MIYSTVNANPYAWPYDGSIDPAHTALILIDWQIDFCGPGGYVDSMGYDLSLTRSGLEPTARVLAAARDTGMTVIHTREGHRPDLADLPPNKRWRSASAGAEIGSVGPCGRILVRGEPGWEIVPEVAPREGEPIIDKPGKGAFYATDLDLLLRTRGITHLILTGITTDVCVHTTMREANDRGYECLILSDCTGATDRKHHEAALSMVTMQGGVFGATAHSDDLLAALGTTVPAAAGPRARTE

| Substance | kcat [1] [s⁻¹] | kcat/Km [1] [M⁻¹ s⁻¹] | Km [2] [µM] | stoichiometry N [3] |
| --- | --- | --- | --- | --- |
| RhdBiuH (Rhodococcus sp. Mel) | 0.14 | 170 ± 40 | 95 ± 26 |  |
| Triuret hydrolase (TrtA) from Herbaspirillum sp. BH-1, wild type, His-tag cleaved (from UniProt A0A2N6JFX7 1-220) (enzyme) |  |  |  | 2 |
